Measurements as given in US12029792B2, “Stereocomplexes for the delivery of anti-cancer agents” (priority 2018, dated 2024).

What was measured:
[1] = In vitro release of DM1 by dialysis with or without GSH; assay type: physicochemical
Procedure: The release of poly-DM1 was performed by dialysis in phosphate buffered saline (pH 7.4, containing 0.2% w/v polysorbate 80) with or without 10 mM glutathione (GSH). Briefly, 1 mL of the poly-DM1 formulation with the concentration of DM1 adjusted to 0.5 mg/mL by PBS was placed in a dialysis bag (MWCO=3.5k Da), which was sealed. After being immediately immersed in 10 mL release medium, the sample was incubated at 37° C. At scheduled time intervals (4, 8, 24, 48 h), 1 mL of the external release medium was taken out and replenished with an equal volume of fresh medium. All released samples were freeze-dried and the amount of released DM1 was determined using HPLC measurements as described previously.
Release of DM1 from the stereocomplex over time, with and without glutathione (GSH) was measured at pH 7.4; results are presented in FIG. 16B. DM1 is released from the isolated prodrug most quickly in the presence of GSH (squares) and more slowly from the stereocomplex (circles). In the absence of glutathione, DM1 is essentially not released from either the isolated prodrug or the complex (triangles and inverted triangles at 0% cumulative release). Thus, conjugation of DM1 with a redox-sensitive disulfide linker prohibits premature release of DM1 without GSH.

[2] = Tolerance of formulations in mice without tumors; assay type: in vivo; conditions: healthy mice, tail vein days 1, 8, 15, 22
Procedure: Healthy mice (n=5 for each treatment group) were injected on days 1, 8, 15, and 22 of a 28-day trial in the tail vein with either the DM1-containing prodrug at 4 mg/kg, the DM1-containing prodrug plus mPEG-PLLA at 4 mg/kg, or the stereocomplex with 4 mg/kg DM1 and 27 mg/kg DTX per injection and body weight was monitored to determine tolerance of the treatments. […] Healthy mice (n=5 for each treatment group) were injected with complex at 3.6 mg/kg DM1 once/week for total three injections, at 5 mg/kg DM1 once/two weeks for total two injections and at 7 mg/kg DM1 only once, respectively.

[3] = test system: MiA PaCa-2 pancreatic tumor; experiment: Subcutaneous MiA PaCa-2 pancreatic tumor model; assay type: in vivo, mice; conditions: four injections for D-DM1, two injections for the stereocomplex
Procedure: In vivo antitumor efficacy of the complex was assessed in a subcutaneous MiA PaCa-2 pancreatic tumor model. MiA PaCa-2 cell suspensions were injected subcutaneously on the backs of mice to establish the tumor model. When tumor volume reached approximately 140 mm^3, groups of tumor bearing mice (n=5) were injected through the tail vein on day 1 and day 14 of an approximately 40-day trial.
(§1) Antitumor efficacy and toxicity for the stereocomplex and DM1-containing prodrug were assessed in a subcutaneous MiaPaCa-2 pancreatic tumor model. MiA PaCa-2 cell suspensions were injected subcutaneously on the backs of mice to establish the tumor model. When tumor volume reached approximately 140 mm^3, groups of tumor-bearing mice (n=5) were injected with treatment through the tail vein.

[4] = test system: CNE nasopharyngeal tumor; experiment: Subcutaneous CNE nasopharyngeal tumor model; assay type: in vivo, mice; conditions: four injections once per week; 4 mg/kg DM1 (complex also 26 mg/kg DTX)
Procedure: as §1, with “CNE nasopharyngeal” for “MiaPaCa-2 pancreatic”, “model when the treatment is delivered via intravenous injection. Cell” for “model. MiA PaCa-2 cell”, “100” for “140”, “tumor bearing” for “tumor-bearing”, “the complex” for “treatment”

Substance: mPEG-PDLA-SS-DM1 [D-DM1]
- cumulative release of DM1 ([1]; pH 7.4, in the absence of glutathione): 0%
- Release of DM1 over time ([1]; pH 7.4, in the presence of GSH (10 mM)): most quickly
- tail swelling and ulceration ([2]; 4 mg/kg DM1): two mice showed tail swelling and ulceration on days 8-14
- Body weight ([2]; 4 mg/kg DM1 (stereocomplex also 27 mg/kg DTX), 28-day trial): increased slightly
- antitumor effect (tumor volume) [3]: almost the same antitumor effect
- toxicity: mouse death and body weight [3]: induced mouse death and obvious body weight decrease
- tumor volume [4]: tumor volume increased significantly
